The values below come from paper PMC10269695, “HtpG Is a Metal-Dependent Chaperone Which Assists the DnaK/DnaJ/GrpE Chaperone System of Mycobacterium tuberculosis via Direct Association with DnaJ2” (Microbiology Spectrum, 2023).

This assay concerns the target T1, M. tuberculosis HtpG (high-temperature protein G) (M. tuberculosis H37Rv, UniProt P9WMJ7 1-647).
T1 construct: also called mHtpG; Rv2299c; not shown: GST, N-terminal, cleaved
T1 sequence: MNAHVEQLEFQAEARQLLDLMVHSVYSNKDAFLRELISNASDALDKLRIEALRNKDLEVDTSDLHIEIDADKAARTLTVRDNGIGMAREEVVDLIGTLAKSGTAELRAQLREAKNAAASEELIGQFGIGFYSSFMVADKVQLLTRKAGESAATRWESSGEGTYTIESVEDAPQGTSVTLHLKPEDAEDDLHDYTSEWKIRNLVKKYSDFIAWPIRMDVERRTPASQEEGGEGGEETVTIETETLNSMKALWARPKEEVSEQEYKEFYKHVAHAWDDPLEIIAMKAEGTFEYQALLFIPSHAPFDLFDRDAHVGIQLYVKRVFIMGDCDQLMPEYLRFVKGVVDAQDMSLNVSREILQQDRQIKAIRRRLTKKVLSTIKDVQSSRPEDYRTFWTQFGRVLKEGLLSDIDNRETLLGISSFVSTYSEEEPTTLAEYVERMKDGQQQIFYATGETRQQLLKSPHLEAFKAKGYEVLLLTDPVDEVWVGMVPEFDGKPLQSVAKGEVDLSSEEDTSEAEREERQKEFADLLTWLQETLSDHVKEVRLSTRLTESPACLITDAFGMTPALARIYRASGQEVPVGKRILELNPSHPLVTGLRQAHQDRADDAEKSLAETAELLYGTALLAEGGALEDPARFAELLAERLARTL
As to the kind of experiment: BLI. Conditions: both partners purified.

B1: M. tuberculosis DnaJ2 (natural protein)
chain: MARDYYGLLGVSKNASDADIKRAYRKLARELHPDVNPDEAAQAKFKEISVAYEVLSDPDKRRIVDLGGDPLESAAAGGNGFGGFGGLGDVFEAFFGGGFGGGAASRGPIGRVRPGSDSLLRMRLDLEECATGVTKQVTVDTAVLCDRCQGKGTNGDSVPIPCDTCGGRGEVQTVQRSLLGQMLTSRPCPTCRGVGVVIPDPCQQCMGDGRIRARREISVKIPAGVGDGMRVRLAAQGEVGPGGGPAGDLYVEVHEQAHDVFVREGDHLHCTVSVPMVDAALGVTVTVDAILDGLSEITIPPGTQPGSVITLRGRGMPHLRSNTRGDLHVHVEVVVPTRLDHQDIELLRELKGRRDREVAEVRSTHAAAGGLFSRLRETFTGR
notes: also called Rv2373c; not shown: GST, N-terminal, cleaved
As usually defined, the Kd is the free concentration of one partner at which half of the binding sites on the other are occupied at equilibrium, for simple one-to-one binding. Consider B1, for which the dissociation constant Kd was approximately 200 nM.
